According to publication PMC2642989, “Enhancement of the Seed-Target Recognition Step in RNA Silencing by a PIWI/MID Domain Protein”:

Assays:
AfPiwi [1] = biological target: T1, AfPiwi (UniProt O28951 1-427); experiment: ITC; AfPiwi into preformed duplex; endothermic; ITC: 50 mM Tris pH 7.5, 150 mM KCl, 5% glycerol, 10 mM MgCl2, 1 mM DTT, 20 C; guide 3.5-24 uM in cell with 3-4 fold excess AfPiwi, target in syringe; details: protein: recombinant; blunt
T1 sequence: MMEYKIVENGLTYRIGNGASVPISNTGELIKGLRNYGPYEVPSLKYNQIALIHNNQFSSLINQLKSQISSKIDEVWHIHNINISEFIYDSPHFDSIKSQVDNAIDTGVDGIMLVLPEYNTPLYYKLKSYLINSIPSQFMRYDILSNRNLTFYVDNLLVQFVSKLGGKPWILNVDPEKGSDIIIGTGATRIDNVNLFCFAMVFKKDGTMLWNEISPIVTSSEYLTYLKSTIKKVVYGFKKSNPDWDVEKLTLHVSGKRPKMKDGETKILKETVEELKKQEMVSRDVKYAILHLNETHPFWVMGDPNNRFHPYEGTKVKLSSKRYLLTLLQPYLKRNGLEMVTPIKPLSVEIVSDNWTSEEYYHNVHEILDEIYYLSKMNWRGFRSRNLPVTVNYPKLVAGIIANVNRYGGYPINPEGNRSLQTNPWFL

AfPiwi [2] = biological target: T1, AfPiwi; experiment: ITC; target into AfPiwi-guide; 10 mM Mg2+; isolation 3.6 nM; ITC: 50 mM Tris pH 7.5, 150 mM KCl, 5% glycerol, 10 mM MgCl2, 1 mM DTT, 20 C; guide 3.5-24 uM in cell with 3-4 fold excess AfPiwi, target in syringe; details: protein: recombinant; 11 bp, guide 3' overhang 1 nt
AfPiwi [3] = biological target: T1, AfPiwi; experiment: ITC; target into AfPiwi-guide; 10 mM Mg2+; isolation 926 nM; ITC: 50 mM Tris pH 7.5, 150 mM KCl, 5% glycerol, 10 mM MgCl2, 1 mM DTT, 20 C; guide 3.5-24 uM in cell with 3-4 fold excess AfPiwi, target in syringe; details: protein: recombinant; T:G mismatch at guide position 1
AfPiwi [4] = biological target: T1, AfPiwi; experiment: ITC; target into AfPiwi-guide; 10 mM Mg2+; isolation 7520 nM; ITC: 50 mM Tris pH 7.5, 150 mM KCl, 5% glycerol, 10 mM MgCl2, 1 mM DTT, 20 C; guide 3.5-24 uM in cell with 3-4 fold excess AfPiwi, target in syringe; details: protein: recombinant; one mismatch
AfPiwi [5] = biological target: T1, AfPiwi; experiment: ITC; target into AfPiwi-guide; 10 mM Mg2+; isolation 1.83 uM; ITC: 50 mM Tris pH 7.5, 150 mM KCl, 5% glycerol, 10 mM MgCl2, 1 mM DTT, 20 C; guide 3.5-24 uM in cell with 3-4 fold excess AfPiwi, target in syringe; details: protein: recombinant
AfPiwi [6] = biological target: T1, AfPiwi; experiment: ITC; target into AfPiwi-guide; 10 mM Mg2+; isolation 1490 nM; ITC: 50 mM Tris pH 7.5, 150 mM KCl, 5% glycerol, 10 mM MgCl2, 1 mM DTT, 20 C; guide 3.5-24 uM in cell with 3-4 fold excess AfPiwi, target in syringe; details: protein: recombinant; T:G mismatch at guide position 10
AfPiwi [7] = biological target: T1, AfPiwi; experiment: ITC; target into AfPiwi-guide; 10 mM Mg2+; isolation 725 nM in text, 990 nM in Table 2; ITC: 50 mM Tris pH 7.5, 150 mM KCl, 5% glycerol, 10 mM MgCl2, 1 mM DTT, 20 C; guide 3.5-24 uM in cell with 3-4 fold excess AfPiwi, target in syringe; details: protein: recombinant
AfPiwi [8] = biological target: T1, AfPiwi; experiment: ITC; target into AfPiwi-guide; 10 mM Mg2+; isolation 4600 nM; ITC: 50 mM Tris pH 7.5, 150 mM KCl, 5% glycerol, 10 mM MgCl2, 1 mM DTT, 20 C; guide 3.5-24 uM in cell with 3-4 fold excess AfPiwi, target in syringe; details: protein: recombinant
AfPiwi [9] = biological target: T1, AfPiwi; experiment: ITC; target into AfPiwi-guide; 10 mM Mg2+; isolation 1280 nM; ITC: 50 mM Tris pH 7.5, 150 mM KCl, 5% glycerol, 10 mM MgCl2, 1 mM DTT, 20 C; guide 3.5-24 uM in cell with 3-4 fold excess AfPiwi, target in syringe; details: protein: recombinant; one mismatch
AfPiwi [10] = biological target: T1, AfPiwi; experiment: ITC; target into AfPiwi-guide; 10 mM Mg2+; isolation 206 nM; ITC: 50 mM Tris pH 7.5, 150 mM KCl, 5% glycerol, 10 mM MgCl2, 1 mM DTT, 20 C; guide 3.5-24 uM in cell with 3-4 fold excess AfPiwi, target in syringe; details: protein: recombinant; T:G mismatch at guide position 8
AfPiwi [11] = biological target: T1, AfPiwi; experiment: ITC; target into AfPiwi-guide; 10 mM Mg2+; isolation 14600 nM; ITC: 50 mM Tris pH 7.5, 150 mM KCl, 5% glycerol, 10 mM MgCl2, 1 mM DTT, 20 C; guide 3.5-24 uM in cell with 3-4 fold excess AfPiwi, target in syringe; details: protein: recombinant; one mismatch
AfPiwi [12] = biological target: T1, AfPiwi; experiment: ITC; target into AfPiwi-guide; 10 mM Mg2+; isolation 794 nM; ITC: 50 mM Tris pH 7.5, 150 mM KCl, 5% glycerol, 10 mM MgCl2, 1 mM DTT, 20 C; guide 3.5-24 uM in cell with 3-4 fold excess AfPiwi, target in syringe; details: protein: recombinant; A:G mismatch at guide position 4

B1: Fig S3 preformed DNA duplex (dsDNA)
DNA 1: TTGAGTTT
DNA 2: AAACTCAA
modifications: 5' phosphate on strand 1
Q: Does B1 bind (AfPiwi [1])?
A: Result: binds

B2: G12 guide / T11 target (dsDNA)
DNA 1: TGTAGGTTGCAT
DNA 2: TGCAACCTACA
modifications: guide (G12) 5' phosphate
Q: Which Kd (AfPiwi [2]) does the source give for B2 here?
A: Its Kd is 8.4 nM.

B3: Fig 5H DNA T:G mismatch at position 1 (dsDNA)
DNA 1: TGTAGGTT
DNA 2: AACCTACG
modifications: guide 5' phosphate
Q: How did the Kd (AfPiwi [3]) turn out when B3 was run?
A: Its Kd is 17 ± 1.1 nM.

B4: Fig 5E DNA mismatch (dsDNA)
DNA 1: TGTAGGTT
DNA 2: AACCTGCA
modifications: guide 5' phosphate
Q: With B4 as the binder, how does the Kd (AfPiwi [4]) read?
A: The Kd was 452 ± 27 nM.

B5: Fig 3C DNA guide / RNA target (seed) (DNA:RNA)
DNA: TGTAGGTT
RNA: AACCUAC
modifications: guide 5' phosphate
Q: With B5 as the binder, how does the Kd (AfPiwi [5]) read?
A: The Kd was 28 nM.

B6: Fig 5G DNA T:G mismatch at position 10 (dsDNA)
DNA 1: TGTAGGTTGTAT
DNA 2: ATGCAACC
modifications: guide 5' phosphate
Q: How did the Kd (AfPiwi [6]) turn out when B6 was run?
A: Its Kd is 2850 ± 350 nM.

B7: Fig 3A DNA guide / DNA target (seed) (dsDNA)
DNA 1: TGTAGGTT
DNA 2: AACCTACA
modifications: guide 5' phosphate
Q: B7 was tested. Which Kd (AfPiwi [7]) did it give?
A: The Kd was 29.2 ± 2 nM.

B8: Fig 3B RNA guide / RNA target (seed) (dsRNA)
RNA 1: UUGUUUGU
RNA 2: ACAAACA
modifications: guide 5' phosphate
Q: With B8 as the binder, how does the Kd (AfPiwi [8]) read?
A: Its Kd is 82.2 ± 2.7 nM.

B9: Fig 5D RNA mismatch (dsRNA)
RNA 1: UGUAGGUU
RNA 2: ACCUGC
modifications: guide 5' phosphate
Q: For B9, which Kd (AfPiwi [9]) is on record?
A: Its Kd is 2030 ± 150 nM.

B10: Fig 5F DNA T:G mismatch at position 8 (dsDNA)
DNA 1: TGTAGGTTGCAT
DNA 2: TGCGACCT
modifications: guide 5' phosphate
Q: Which Kd (AfPiwi [10]) does the source give for B10 here?
A: The Kd was 672 ± 82 nM.

B11: Fig 5B RNA mismatch (dsRNA)
RNA 1: UUGUUUGU
RNA 2: ACAAGCA
modifications: guide 5' phosphate
Q: How did the Kd (AfPiwi [11]) turn out when B11 was run?
A: Its Kd is 152 ± 16 nM.

B12: Fig 5A RNA A:G mismatch at position 4 (dsRNA)
RNA 1: UGUAGGUU
RNA 2: AACCGACA
modifications: guide 5' phosphate
Q: With B12 as the binder, how does the Kd (AfPiwi [12]) read?
A: Its Kd is 1160 ± 260 nM.
